Data set [1] in a line: Pharmacokinetic profile of PEG-A1 in mouse vitreous by arginase activity after intravitreal administration. Format: in vivo. The note with it: adult mice, intravitreal 6.8 ng in 1 μL. From the text:
Based on the results of the above studies showing detrimental effects of A1 hemizygous deletion on vascular repair in A1^+/− mice and the findings that increases in A1 expression accompany the beneficial effects of A2 deletion on the vascular injury, it was hypothesized that treatment with A1 could be useful in limiting OIR-induced retinal injury. To test this, a PEG-A1 was used. […] Adult mice were used in this experiment to get higher vitreous yield for ease of processing.

For data set [2], the system named is mice subjected to optic nerve crush (ONC). Briefly: Optic nerve crush (ONC) model of traumatic optic neuropathy: neuroprotection by NeuN labeling. Format: in vivo, mouse. The note with it: 7 days post-ONC, treated at 3 hours and day 4; vehicle group 62%. As for the experimental part:
Mouse retinal ischemia-reperfusion (IR) injury and traumatic optic neuropathy (TON) models: All experiments were performed in accordance with the ARVO Statement for the Use of Animals in Ophthalmic and Vision Research and were approved by the institutional animal care and use committee (Animal Welfare Assurance no. D16-00197). Wild-type (WT) C57BL/6J mice (10-12 weeks old) were anesthetized using ketamine/xylazine mixture then subjected to retinal ischemia-reperfusion (IR) injury or optic nerve crush (ONC) to model traumatic optic neuropathy (TON) as described in Shosha, et al., Cell death & disease, 7:e2483-e (2016) and Xu, et al., Frontiers in Neuroscience, 12:970 (2018). […]
Evaluation of retinal neurodegeneration: Retina flat-mounts and explants were immunolabeled for the neuronal marker, NeuN (Millipore), as previously described in Shosha, et al., Cell death & disease, 7:e2483-e (2016). Images were collected and analyzed in a blinded fashion using a semi-automated method. […] NeuN-positive cells were quantified using ImageJ software ‘Batch processing’ function. […] The macro was validated every time it was used to make sure it is compatible with the set of images being analyzed. […]

For data set [3] the following is noted: previously reported (De Santo 2018); cited from earlier work.
A short description of data set [4]: MCAO stroke model: PEG-A1 penetration into the brain (Western blot). Format: in vivo, mouse. The note with it: 60 minutes MCAO, 24 hours after stroke, perfused. Here is the method:
Western blotting: Western blotting on retina or brain was conducted as described in Fouda, A Y, et al., Cell death & Disease, 9:1001 (2018). Membranes were probed with anti-PEG (RevMAb Biosciences, 1:1000) and anti-albumin (Bethyl Laboratories, 1:5000). Uncropped blots are included in FIG. 22.
MCAO model: C57BL/6J mice (12-16 week-old male, 25-30 g) were subjected to middle cerebral artery occlusion (MCAO) using the intraluminal filament technique (Docol 602145) for 60-minutes followed by reperfusion as described in Eldahshan, et al., American Journal of Physiology Heart and Circulatory Physiology, 316:H1192-h201 (2019). […] A heating pad was used to maintain body temperature at 37° C. […] Sham surgery involved all the regular surgery steps except the filament insertion. Mice were deeply anesthetized at 24 hours and sacrificed by trans-cardial perfusion with PBS then brains were collected and sectioned for triphenyl tetrazolium chloride (TTC) staining or homogenized in RIPA lysis buffer for western blotting.
PEG-A1 treatment in acute retinal and brain injury mouse models: A pharmaceutical grade of PEG-A1 was provided as a kind gift from Bio-Cancer Treatment International Limited (BCT, Hong Kong). […] Methoxy polyethylene glycol propionic acid (MW 5,000—Sigma, Catalog number 88908-1G-F) was used as vehicle control. […]

Data set [5] has as its system retinal explants. Briefly: Ex vivo retinal explants subjected to OGD/R, NeuN flat-mount staining. Format: cell-based, mouse. As to conditions: 3 hours OGD/21 hours reoxygenation, treated at reoxygenation; untreated 55%, PEG only 48%. The source says:
Evaluation of retinal neurodegeneration: Retina flat-mounts and explants were immunolabeled for the neuronal marker, NeuN (Millipore), as previously described in Shosha, et al., Cell death & disease, 7:e2483-e (2016). Images were collected and analyzed in a blinded fashion using a semi-automated method. Four images per retina flat-mount were taken as Z-stacks in the mid-periphery of each retina petal using an inverted confocal microscope (LSM 780; Carl Zeiss). Three images were taken per explant. NeuN-positive cells were quantified using ImageJ software ‘Batch processing’ function. A prerecorded ImageJ macro code (FIG. 23A-23C) was used for batch processing. The macro was validated every time it was used to make sure it is compatible with the set of images being analyzed. Results from three to four images were averaged to represent neuron density for each retina. Results are presented as % of sham retina or control explant under normoxic conditions. […]
The retinal IR model was mimicked by subjecting retinal explants to oxygen-glucose deprivation/reperfusion (OGD/R) ex vivo (FIG. 19A). An OGD time-response experiment established 3 hours of OGD/21 hours of reoxygenation to be optimal for studying retinal neurodegeneration ex vivo with about 60% neuronal survival as measured by NeuN flat-mount staining (FIG. 19B-19E, 19F).

B1: PEG-A1: recombinant human arginase (rhArg) covalently attached to methoxy polyethylene glycol (mPEG-SPA; MW 5,000) via succinamide propionic acid (SPA) linker (protein, UniProt P05089 1-322, looked up)
Arginase-1: MSAKSRTIGIIGAPFSKGQPRGGVEEGPTVLRKAGLLEKLKEQECDVKDYGDLPFADIPNDSPFQIVKNPRSVGKASEQLAGKVAEVKKNGRISLVLGGDHSLAIGSISGHARVHPDLGVIWVDAHTDINTPLTTTSGNLHGQPVSFLLKELKGKIPDVPGFSWVTPCISAKDIVYIGLRDVDPGEHYILKTLGIKYFSMTEVDRLGIGKVMEETLSYLLGRKKRPIHLSFDVDGLDPSFTPATGTPVVGGLTYREGLYITEEIYKTGLLSGLDIMEVNPSLGKTPEEVTRTVNTAVAITLACFGLAREGNHKPIDYLNPPK
modifications: mPEG-SPA 5 kDa conjugate
notes: recombinant human arginase (rhArg) covalently attached to methoxy polyethylene glycol (mPEG-SPA; MW 5,000) via succinamide propionic acid (SPA) linker
Regarding B1, the values for the vitreous arginase activity result in data set [1] (day 3 post injection) and in data set [1] (day 6) were “three-fold” and “returned to baseline”, respectively. The “vitreous arginase activity as compared to vehicle treatment” value in data set [1] (immediately after administration) is listed as “about six-fold increase”. Besides, the “neuroprotection after ONC (NeuN labeling and quantification)” value in data set [2] was 78%. The CNS penetration entry in data set [3] is “poor CNS penetration”. The “anti-PEG immunoreactivity in stroked brains (Western blot, also anti-A1)” value in data set [4] was “strong band”. The “neuronal survival of retina explants (NeuN)” value in data set [5] is recorded as 73%.

Values taken from patent publication US20210340516A1, “COMPOSITIONS CONTAINING ARGINASE 1 FOR THE TREATMENT OF NEUROVASCULAR AND RETINAL VASCULAR DISORDERS” (Augusta University Research Institute, Inc., priority 2020, published 2021).
